Where no end group is shown, it is not given here. [ ]: non-standard residue; d: D form. AEEA = NCCOCCOCC(=O)O
B1: Noncoupled peptide 1 (peptide)
peptide: ATEPHAKKKCAGLGFAELQDL
modifications: (Ado)2 (dimer of 8-amino-3,6-dioxaoctanoic acid) between ATEPHAKKK and C and between C and AGLGFAELQDL; C-terminal amide
B2: Compound 3 (Peptide 1 - IgG) (peptide, part only; not given: polyclonal rabbit IgG carrier, part only)
peptide: ATEPHAKKK[AEEA][AEEA]CAGLGFAELQDL-NH2
modifications: not fully specified (some residues); numbers in words are those of the source; also: Cys thioether-coupled to IgG carrier, about 10 peptides per IgG

Key:
[1] = target: 3D5F7 monoclonal antibody, Fab' fragment coupled to alkaline phosphatase; test: VIDAS one-step sandwich immunoassay; capture 19C7+B90 on tip, detection 3D5F7+7B9 Fab'-alkaline phosphatase; peptide at (500 ng/mL peptide)
[2] = target: 3D5F7 monoclonal antibody, Fab' fragment coupled to alkaline phosphatase; test: VIDAS one-step sandwich immunoassay; capture 19C7+B90 on tip, detection 3D5F7+7B9 Fab'-alkaline phosphatase; peptide at (4000 ng/mL peptide)
[3] = target: 3D5F7 monoclonal antibody, Fab' fragment coupled to alkaline phosphatase; test: VIDAS one-step sandwich immunoassay; capture 19C7+B90 on tip, detection 3D5F7+7B9 Fab'-alkaline phosphatase; peptide at (1000 ng/mL peptide)
[4] = target: 3D5F7 monoclonal antibody, Fab' fragment coupled to alkaline phosphatase; test: VIDAS one-step sandwich immunoassay; capture 19C7+B90 on tip, detection 3D5F7+7B9 Fab'-alkaline phosphatase; peptide (50 ng/mL peptide)
[5] = target: 3D5F7 monoclonal antibody, Fab' fragment coupled to alkaline phosphatase; test: VIDAS one-step sandwich immunoassay; capture 19C7+B90 on tip, detection 3D5F7+7B9 Fab'-alkaline phosphatase; peptide (200 ng/mL peptide)
[6] = target: 3D5F7 monoclonal antibody, Fab' fragment coupled to alkaline phosphatase; test: VIDAS one-step sandwich immunoassay; capture 19C7+B90 on tip, detection 3D5F7+7B9 Fab'-alkaline phosphatase; peptide (20 ng/mL peptide)
[7] = target: 3D5F7 monoclonal antibody, Fab' fragment coupled to alkaline phosphatase; test: VIDAS one-step sandwich immunoassay; capture 19C7+B90 on tip, detection 3D5F7+7B9 Fab'-alkaline phosphatase; peptide at (2000 ng/mL peptide)
[8] = target: 3D5F7 monoclonal antibody, Fab' fragment coupled to alkaline phosphatase; test: VIDAS one-step sandwich immunoassay; capture 19C7+B90 on tip, detection 3D5F7+7B9 Fab'-alkaline phosphatase; peptide (100 ng/mL peptide)
[9] = target: 3D5F7 monoclonal antibody, Fab' fragment coupled to alkaline phosphatase; test: VIDAS one-step sandwich immunoassay; capture 19C7+B90 on tip, detection 3D5F7+7B9 Fab'-alkaline phosphatase; peptide at 2 ng/mL
[10] = target: 3D5F7 monoclonal antibody, Fab' fragment coupled to alkaline phosphatase; test: VIDAS one-step sandwich immunoassay; capture 19C7+B90 on tip, detection 3D5F7+7B9 Fab'-alkaline phosphatase; compound at (20 ng/mL peptide)
[11] = target: 3D5F7 monoclonal antibody, Fab' fragment coupled to alkaline phosphatase; test: VIDAS one-step sandwich immunoassay; capture 19C7+B90 on tip, detection 3D5F7+7B9 Fab'-alkaline phosphatase; (10 ng/mL peptide)
[12] = target: 3D5F7 monoclonal antibody, Fab' fragment coupled to alkaline phosphatase; test: VIDAS one-step sandwich immunoassay; capture 19C7+B90 on tip, detection 3D5F7+7B9 Fab'-alkaline phosphatase; compound at (1 ng/mL peptide)
[13] = target: 3D5F7 monoclonal antibody, Fab' fragment coupled to alkaline phosphatase; test: VIDAS one-step sandwich immunoassay; capture 19C7+B90 on tip, detection 3D5F7+7B9 Fab'-alkaline phosphatase; compound (5 ng/mL peptide)
[14] = target: 3D5F7 monoclonal antibody, Fab' fragment coupled to alkaline phosphatase; test: VIDAS one-step sandwich immunoassay; capture 19C7+B90 on tip, detection 3D5F7+7B9 Fab'-alkaline phosphatase; compound (50 ng/mL peptide)

Binder | signal in RFV [1] | signal in RFV [2] | signal in RFV [3] | signal in RFV [4] | signal in RFV [5] | signal in RFV [6] | signal in RFV [7] | signal in RFV [8] | signal in RFV [9] | signal in RFV [10] | signal in RFV [11] | signal in RFV [12] | signal in RFV [13] | signal in RFV [14]
B1 | 1820 RFV | 7540 RFV | 3800 RFV | 21 RFV | 356 RFV | 2 RFV | 6140 RFV | 69 RFV |  |  |  |  |  | 
B2 |  |  |  |  |  |  |  |  | 360 RFV | 3280 RFV | 1690 RFV | 175 RFV | 882 RFV | 6210 RFV

Source: patent US11193929
